Test [1] concerns the target Dictyostelium discoideum dye-decolorizing peroxidase DyPA (Dictyostelium discoideum). The test is described as follows: AUC; sedimentation velocity, 50,000 rpm, 20 °C, 50 mM Tris-HCl pH 8.0, 150 mM NaCl; 20 µM apo-DyPA with a heme saturation of only 7%.
Test [2] shares this target. The test is described as follows: AUC; sedimentation velocity, 50,000 rpm, 20 °C, 50 mM Tris-HCl pH 8.0, 150 mM NaCl; heme-reconstituted DyPA at 2.1, 6.3, 18.9 and 33.6 µM (monomer concentrations); dimer, no monomer-dimer equilibrium seen in this range.

A word on the stoichiometry N: it is a count of units in the complex or per binding partner. Take “Dictyostelium discoideum dye-decolorizing peroxidase DyPA (enzyme)”: in test [1], the stoichiometry N amounted to 2. In test [2], this substance showed a percent of the protein sedimenting as the dimer species of 90% and a stoichiometry N of 2.
